Laboratory results: publication PMC9846250

Tests used:
[1] = biological target: paramyosin from giant squid (Dosidicus gigas) (giant squid (Dosidicus gigas)); assay: dynamic light scattering; 25°C, 90°, purified paramyosin in PBS pH 7.5 with 0.15, 0.5 and 1 M KCl; two populations by hydrodynamic radius (dimer, aggregates); number fractions calculated from the scattered intensities
[2] = biological target: paramyosin from giant squid (Dosidicus gigas) (giant squid (Dosidicus gigas)); assay: static light scattering; Debye plot, 25°C, 90°, paramyosin 0.01-0.1 mg/ml in PBS pH 7.5 with 0.15, 0.5 and 1.0 M KCl; apparent Mw; monomers to dimer
[3] = dynamic light scattering; 25°C, 90°, purified paramyosin in PBS pH 7.5 with 0.15, 0.5 and 1 M KCl; two populations by hydrodynamic radius (dimer, aggregates); number fractions calculated from the scattered intensities; details: other: dynamic light scattering

percent of molecules in dimeric form [1] [%] | stoichiometry N [2] | Substance | dimers per aggregate [3]
> 99 | 2 | paramyosin from giant squid (Dosidicus gigas) (natural protein) | –
– | – | paramyosin from giant squid (Dosidicus gigas) | there are ca. 5 dimer paramyosin particles inside an aggregate
